Measurements published in patent publication US20110271358A1 (Dana-Farber, published 2011).
Each block holds one binder with its values, some of them ahead of it.

Columns and labels:
[1] = target: T1, human Fc-PD-1 (R&D systems) (human, UniProt Q15116 25-167); assay: competition ELISA on coated human Fc-PD-1; competitor biotinylated EH12.2H7
T1 construct: Bought Fc fusion coated on the ELISA plate; also called human PD-1; not shown: Fc part of the bought fusion protein

[2] = target: T2, human Fc-PD-L1 (R&D systems) (human, UniProt Q9NZQ7 19-239); assay: competition ELISA on coated human Fc-PD-L1; competitor biotinylated 29E.2A3
T2 construct: Bought Fc fusion coated on the ELISA plate; also called human PD-L1; not shown: Fc part of the bought fusion protein
T2 sequence (Q9NZQ7 19-239 limits assumed): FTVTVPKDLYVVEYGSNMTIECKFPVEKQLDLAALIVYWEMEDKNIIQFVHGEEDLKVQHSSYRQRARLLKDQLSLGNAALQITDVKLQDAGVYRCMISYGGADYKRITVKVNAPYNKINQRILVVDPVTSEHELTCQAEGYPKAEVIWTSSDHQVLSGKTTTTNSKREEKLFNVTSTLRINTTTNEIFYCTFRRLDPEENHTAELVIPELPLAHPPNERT

[3] = target: T2, human Fc-PD-L1 (R&D systems); assay: competition ELISA on coated human Fc-PD-L1; IC50 against mouse 29E.2A3
[4] = target: T3, human Fc-PD-L2 (R&D systems) (human, UniProt Q9BQ51 20-219); assay: competition ELISA on coated human Fc-PD-L2; competitor biotinylated 24F.10C12
T3 construct: Bought Fc fusion coated on the ELISA plate; also called human PD-L2; not shown: Fc part of the bought fusion protein
T3 sequence: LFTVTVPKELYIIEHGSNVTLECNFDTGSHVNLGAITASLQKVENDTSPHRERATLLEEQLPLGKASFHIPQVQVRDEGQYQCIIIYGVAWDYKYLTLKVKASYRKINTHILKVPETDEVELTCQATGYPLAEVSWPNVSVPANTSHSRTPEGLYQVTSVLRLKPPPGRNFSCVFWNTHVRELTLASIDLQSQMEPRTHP

[5] = target: T3, human Fc-PD-L2 (R&D systems); assay: competition ELISA on coated human Fc-PD-L2; IC50 against mouse 24F.10C12
[6] = target: T1, human Fc-PD-1 (R&D systems); assay: competition ELISA on coated human Fc-PD-1; IC50 against mouse EH12.2H7

T1 sequence (Q15116 25-167 limits assumed): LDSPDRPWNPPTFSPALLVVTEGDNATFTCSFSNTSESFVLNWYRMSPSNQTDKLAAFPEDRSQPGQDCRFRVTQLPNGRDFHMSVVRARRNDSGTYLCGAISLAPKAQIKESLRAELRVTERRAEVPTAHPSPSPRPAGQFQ

IC50 [1]: 1.23 µg/mL
B1: mouse anti-human PD-1 antibody EH12.2H7 (antibody, V domains shown)
VH: QVQLQQSGAELAKPGASVQMSCKASGYSFTSSWIHWVKQRPGQGLEWIGYIYPSTGFTEYNQKFKDKATLTADKSSSTAYMQLSSLTSEDSAVYYCARWRDSSGYHAMDYWGQGTSVTVSS
VL: DIVLTQSPASLTVSLGQRATISCRASQSVSTSGYSYMHWYQQKPGQPPKLLIKFGSNLESGIPARFSGSGSGTDFTLNIHPVEEEDTATYYCQHSWEIPYTFGGGTKLEIK
notes: Mouse monoclonal antibody; also called Biotin-EH12.2H7

IC50 [4]: 0.52 µg/mL
B5: mouse anti-human PD-L2 antibody 24F.10C12 (antibody, V domains shown)
VH: QVQLQQSAAELARPGASVKMSCKASGYTFTGYTMHWVKQRPGQGLEWIGYINPRSGYTEYNQKFKDKTTLTADKSSSTAYMQLSSLTSEDSAVYYCARPWFAYWGQGTLVTVSA
VL: DIVMTQSPSSLTVTAGEKVTMSCKSSQSLLNSGNQKNYLTWYQQKPGQPPKLLIYWASTRESGVPDRFTGSGSGTDFTLTISSVQAEDLAVYYCQNDYSYPLTFGAGTKLELK
notes: Mouse monoclonal antibody; also called Biotin-24F.10C12

IC50 [2]: 0.28 µg/mL
B10: mouse anti-human PD-L1 antibody 29E.2A3 (antibody, V domains shown)
VH: EVQLQQSGPELVKPGASVKMSCKASGYTFTSYVMHWVKQKPGQGLEWIGYVNPFNDGTKYNEMFKGKATLTSDKSSSTAYMELSSLTSEDSAVYYCARQAWGYPWGQGTLVTVSA
VL: DIVLTQSPASLAVSLGQRATISCRATESVEYYGTSLVQWYQQKPGQPPKLLIYAASSVDSGVPARFSGSGSGTDFSLTIHPVEEDDIAMYFCQQSRRVPYTFGGGTKLEIK
notes: Mouse monoclonal antibody; also called Biotin-29E.2A3

IC50 [1]: 0.91 µg/mL
B12: EH12.2H7 composite, human antibody VH4/VK4 (antibody, V domains shown)
VH: QVQLVQSGHEVKQPGASVKMSCKASGYSFTSSWIHWVRQAPGQGLEWIGYIYPSTGFTEYNQKFKDRATLTADKSTSTAYMELSSLRSEDTAVYYCARWRDSSGYHAMDYWGQGTLVTVSS
VL: DIVLTQSPATLSLSPGQRLTISCRASQSVSTSGYSYMHWYQQKPDQSPKLLIKFGSNLESGIPARFSGSGSGTDFTLTISSLEPEDFAVYYCQHSWEIPYTFGQGTKLEIK
notes: V regions cloned into vectors containing human constant regions (quantified against an IgG1/kappa standard; isotype not expressly stated)

The remaining lines, values behind:

B2: 29E.2A3 composite, human antibody VH2/VK2 (antibody, V domains shown)
VH: EVQLVQSGAEVKKPGASVKMSCKASGYTFTSYVMHWVKQAPGQRLEWIGYVNPFNDGTKYNEMFKGRATLTSDKSTSTAYMELSSLRSEDTAVYYCARQAWGYPWGQGTLVTVSS
VL: DIVLTQSPATLSLSPGERATLSCRATESVEYYGTSLVQWYQQKPGQPPKLLIYAASSVDSGVPSRFSGSGSGTDFTLTINSLEAEDAAMYFCQQSRRVPYTFGQGTKLEIK
notes: as for B12
IC50 [2]: 0.49 µg/mL
fold reduced binding compared to the mouse reference [3]: 1.75 fold

B3: 29E.2A3 composite, human antibody VH2/VK1 (antibody, V domains shown)
VH: EVQLVQSGAEVKKPGASVKMSCKASGYTFTSYVMHWVKQAPGQRLEWIGYVNPFNDGTKYNEMFKGRATLTSDKSTSTAYMELSSLRSEDTAVYYCARQAWGYPWGQGTLVTVSS
VL: DIVLTQSPASLALSPGERATLSCRATESVEYYGTSLVQWYQQKPGQPPKLLIYAASSVDSGVPSRFSGSGSGTDFTLTINSLEEEDAAMYFCQQSRRVPYTFGQGTKLEIK
notes: as for B12
IC50 [2]: 0.27 µg/mL

B4: 29E.2A3 composite, human antibody VH4/VK2 (antibody, V domains shown)
VH: EVQLVQSGAEVKKPGASVKVSCKASGYTFTSYVMHWVRQAPGQRLEWIGYVNPFNDGTKYNEMFKGRATLTSDKSTSTAYMELSSLRSEDTAVYYCARQAWGYPWGQGTLVTVSS
VL: DIVLTQSPATLSLSPGERATLSCRATESVEYYGTSLVQWYQQKPGQPPKLLIYAASSVDSGVPSRFSGSGSGTDFTLTINSLEAEDAAMYFCQQSRRVPYTFGQGTKLEIK
notes: as for B12
IC50 [2]: 0.38 µg/mL
fold reduced binding compared to the mouse reference [3]: 1.36 fold

B6: 24F.10C12 composite, human antibody VH2/VK2 (antibody, V domains shown)
VH: QVQLVQSGAEVKKPGASVKMSCKASGYTFTGYTMHWVKQAPGQGLEWIGYINPRSGYTEYNQKFKDRTTLTADKSTSTAYMELSSLRSEDTAVYYCARPWFAYWGQGTLVTVSS
VL: DIVMTQSPASLSVTPGEKVTITCKSSQSLLNSGNQKNYLTWYQQKPGQPPKLLIYWASTRESGVPDRFTGSGSGTDFTLTISSLQAEDVAVYYCQNDYSYPLTFGQGTKLEIK
notes: as for B12
fold reduced binding compared to the mouse reference [5]: 1.13 fold
IC50 [4]: 0.58 µg/mL

B7: 24F.10C12 composite, human antibody VH2/VK3 (antibody, V domains shown)
VH: QVQLVQSGAEVKKPGASVKMSCKASGYTFTGYTMHWVKQAPGQGLEWIGYINPRSGYTEYNQKFKDRTTLTADKSTSTAYMELSSLRSEDTAVYYCARPWFAYWGQGTLVTVSS
VL: DIVMTQSPAFLSVTPGEKVTITCKSSQSLLNSGNQKNYLTWYQQKPGQPPKLLIYWASTRESGVPDRFTGSGSGTDFTLTISSLQAEDVAVYYCQNDYSYPLTFGQGTKLEIK
notes: as for B12
fold reduced binding compared to the mouse reference [5]: 1.13 fold
IC50 [4]: 0.59 µg/mL

B8: 24F.10C12 composite, human antibody VH4/VK2 (antibody, V domains shown)
VH: QVQLVQSGAEVKKPGASVKVSCKASGYTFTGYTMHWVRQAPGQGLEWIGYINPRSGYTEYNQKFKDRTTLTADKSTSTAYMELSSLRSEDTAVYYCARPWFAYWGQGTLVTVSS
VL: DIVMTQSPASLSVTPGEKVTITCKSSQSLLNSGNQKNYLTWYQQKPGQPPKLLIYWASTRESGVPDRFTGSGSGTDFTLTISSLQAEDVAVYYCQNDYSYPLTFGQGTKLEIK
notes: as for B12
fold reduced binding compared to the mouse reference [5]: 1.13 fold
IC50 [4]: 0.6 µg/mL

B9: 24F.10C12 composite, human antibody VH4/VK4 (antibody, V domains shown)
VH: QVQLVQSGAEVKKPGASVKVSCKASGYTFTGYTMHWVRQAPGQGLEWIGYINPRSGYTEYNQKFKDRTTLTADKSTSTAYMELSSLRSEDTAVYYCARPWFAYWGQGTLVTVSS
VL: DIVMTQSPAFLSVTPGEKVTITCKSSQSLLNSGNQKNYLTWYQQKPGQPPKLLIYWASTRESGVPDRFSGSGSGTDFTLTISSLQAEDVAVYYCQNDYSYPLTFGQGTKLEIK
notes: as for B12
fold reduced binding compared to the mouse reference [5]: 1.13 fold
IC50 [4]: 0.58 µg/mL

B11: EH12.2H7 composite, human antibody VH3/VK3 (antibody, V domains shown)
VH: QVQLVQSGHEVKQPGASVKMSCKASGYSFTSSWIHWVKQAPGQGLEWIGYIYPSTGFTEYNQKFKDRATLTADKSTSTAYMELSSLRSEDTAVYYCARWRDSSGYHAMDYWGQGTLVTVSS
VL: EIVLTQSPATLSLSPGQRLTISCRASQSVSTSGYSYMHWYQQKPDQSPKLLIKFGSNLESGIPARFSGSGSGTDFTLTISSLEPEDFATYYCQHSWEIPYTFGQGTKLEIK
notes: as for B12
IC50 [1]: 0.93 µg/mL

B13: EH12.2H7 composite, human antibody VH4/VK3 (antibody, V domains shown)
VH: QVQLVQSGHEVKQPGASVKMSCKASGYSFTSSWIHWVRQAPGQGLEWIGYIYPSTGFTEYNQKFKDRATLTADKSTSTAYMELSSLRSEDTAVYYCARWRDSSGYHAMDYWGQGTLVTVSS
VL: EIVLTQSPATLSLSPGQRLTISCRASQSVSTSGYSYMHWYQQKPDQSPKLLIKFGSNLESGIPARFSGSGSGTDFTLTISSLEPEDFATYYCQHSWEIPYTFGQGTKLEIK
notes: as for B12
IC50 [1]: 0.57 µg/mL
fold increase in binding compared to the mouse reference [6]: 2 fold

B14: EH12.2H7 composite, human antibody VH3/VK4 (antibody, V domains shown)
VH: QVQLVQSGHEVKQPGASVKMSCKASGYSFTSSWIHWVKQAPGQGLEWIGYIYPSTGFTEYNQKFKDRATLTADKSTSTAYMELSSLRSEDTAVYYCARWRDSSGYHAMDYWGQGTLVTVSS
VL: DIVLTQSPATLSLSPGQRLTISCRASQSVSTSGYSYMHWYQQKPDQSPKLLIKFGSNLESGIPARFSGSGSGTDFTLTISSLEPEDFAVYYCQHSWEIPYTFGQGTKLEIK
notes: as for B12
IC50 [1]: 0.74 µg/mL
